Key:
[1] = target: T1, human SEZ6 expressed on stably transfected CHO-K1 cells (human, UniProt Q53EL9 20-994); assay: flow cytometry on CHO-K1 cells expressing human SEZ6
T1 construct: also called CHO-SEZ6; hSEZ6
T1 sequence: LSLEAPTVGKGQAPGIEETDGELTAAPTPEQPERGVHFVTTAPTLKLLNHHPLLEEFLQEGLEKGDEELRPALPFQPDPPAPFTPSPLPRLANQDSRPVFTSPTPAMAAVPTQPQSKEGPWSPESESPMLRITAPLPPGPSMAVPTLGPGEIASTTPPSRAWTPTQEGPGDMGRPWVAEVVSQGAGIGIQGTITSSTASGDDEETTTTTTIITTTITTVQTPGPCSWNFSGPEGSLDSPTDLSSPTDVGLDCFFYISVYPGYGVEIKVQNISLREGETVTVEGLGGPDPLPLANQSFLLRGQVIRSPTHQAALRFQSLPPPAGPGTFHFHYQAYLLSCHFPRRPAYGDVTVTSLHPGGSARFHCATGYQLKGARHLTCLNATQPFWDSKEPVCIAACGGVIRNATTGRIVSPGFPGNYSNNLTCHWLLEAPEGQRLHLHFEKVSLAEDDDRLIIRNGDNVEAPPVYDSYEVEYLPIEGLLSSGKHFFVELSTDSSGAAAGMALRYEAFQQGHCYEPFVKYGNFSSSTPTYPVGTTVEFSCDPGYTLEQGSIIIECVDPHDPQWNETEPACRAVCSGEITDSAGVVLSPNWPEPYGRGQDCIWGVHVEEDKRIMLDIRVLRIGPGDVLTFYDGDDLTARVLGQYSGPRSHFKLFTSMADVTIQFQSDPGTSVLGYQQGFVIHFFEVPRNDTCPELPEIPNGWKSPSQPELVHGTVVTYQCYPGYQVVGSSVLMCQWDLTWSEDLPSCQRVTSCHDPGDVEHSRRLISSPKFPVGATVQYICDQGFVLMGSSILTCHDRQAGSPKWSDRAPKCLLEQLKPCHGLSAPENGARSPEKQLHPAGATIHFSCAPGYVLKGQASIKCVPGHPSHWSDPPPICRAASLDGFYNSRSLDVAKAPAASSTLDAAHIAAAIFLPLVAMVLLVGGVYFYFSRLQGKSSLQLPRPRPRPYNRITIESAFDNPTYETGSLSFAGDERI

[2] = target: T2, Recombinant human SEZ6-His6 protein (human, UniProt Q53EL9 20-925); assay: SPR (BIAcore 8K), antibody captured on protein A chip, SEZ6-His6 as analyte, 1:1 Langmuir model
T2 construct: also called His-tagged SEZ6 antigen
T2 sequence: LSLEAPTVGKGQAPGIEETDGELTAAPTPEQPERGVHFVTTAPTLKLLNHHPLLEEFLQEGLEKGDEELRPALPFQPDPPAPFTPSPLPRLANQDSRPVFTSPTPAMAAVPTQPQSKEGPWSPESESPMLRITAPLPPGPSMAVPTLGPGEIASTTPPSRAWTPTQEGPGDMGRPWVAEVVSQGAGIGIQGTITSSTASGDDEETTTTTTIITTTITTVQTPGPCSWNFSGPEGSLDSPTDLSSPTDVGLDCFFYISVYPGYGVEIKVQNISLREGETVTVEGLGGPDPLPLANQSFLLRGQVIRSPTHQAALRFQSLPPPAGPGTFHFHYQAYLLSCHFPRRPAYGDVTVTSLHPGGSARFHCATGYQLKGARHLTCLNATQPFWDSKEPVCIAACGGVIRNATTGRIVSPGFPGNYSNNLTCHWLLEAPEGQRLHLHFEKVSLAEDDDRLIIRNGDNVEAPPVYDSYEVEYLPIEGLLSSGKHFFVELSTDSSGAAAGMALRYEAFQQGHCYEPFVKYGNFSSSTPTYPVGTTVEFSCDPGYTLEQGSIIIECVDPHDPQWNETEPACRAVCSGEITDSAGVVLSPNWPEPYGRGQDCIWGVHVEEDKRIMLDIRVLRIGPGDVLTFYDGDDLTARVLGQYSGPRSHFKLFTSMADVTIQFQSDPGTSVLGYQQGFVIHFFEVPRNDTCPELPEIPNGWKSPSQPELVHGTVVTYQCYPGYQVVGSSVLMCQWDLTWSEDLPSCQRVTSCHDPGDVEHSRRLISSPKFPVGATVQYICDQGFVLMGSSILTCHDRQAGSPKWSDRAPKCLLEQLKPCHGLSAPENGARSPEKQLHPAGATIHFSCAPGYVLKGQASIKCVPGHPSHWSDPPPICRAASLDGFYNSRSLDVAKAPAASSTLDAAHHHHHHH

[3] = target: T3, Recombinant monkey SEZ6-His6 protein (cynomolgus monkey, UniProt Q53EL9 20-925 (human entry)); assay: as above
T3 construct: also called Cynomolgus monkey SEZ6-His6
T3 chain: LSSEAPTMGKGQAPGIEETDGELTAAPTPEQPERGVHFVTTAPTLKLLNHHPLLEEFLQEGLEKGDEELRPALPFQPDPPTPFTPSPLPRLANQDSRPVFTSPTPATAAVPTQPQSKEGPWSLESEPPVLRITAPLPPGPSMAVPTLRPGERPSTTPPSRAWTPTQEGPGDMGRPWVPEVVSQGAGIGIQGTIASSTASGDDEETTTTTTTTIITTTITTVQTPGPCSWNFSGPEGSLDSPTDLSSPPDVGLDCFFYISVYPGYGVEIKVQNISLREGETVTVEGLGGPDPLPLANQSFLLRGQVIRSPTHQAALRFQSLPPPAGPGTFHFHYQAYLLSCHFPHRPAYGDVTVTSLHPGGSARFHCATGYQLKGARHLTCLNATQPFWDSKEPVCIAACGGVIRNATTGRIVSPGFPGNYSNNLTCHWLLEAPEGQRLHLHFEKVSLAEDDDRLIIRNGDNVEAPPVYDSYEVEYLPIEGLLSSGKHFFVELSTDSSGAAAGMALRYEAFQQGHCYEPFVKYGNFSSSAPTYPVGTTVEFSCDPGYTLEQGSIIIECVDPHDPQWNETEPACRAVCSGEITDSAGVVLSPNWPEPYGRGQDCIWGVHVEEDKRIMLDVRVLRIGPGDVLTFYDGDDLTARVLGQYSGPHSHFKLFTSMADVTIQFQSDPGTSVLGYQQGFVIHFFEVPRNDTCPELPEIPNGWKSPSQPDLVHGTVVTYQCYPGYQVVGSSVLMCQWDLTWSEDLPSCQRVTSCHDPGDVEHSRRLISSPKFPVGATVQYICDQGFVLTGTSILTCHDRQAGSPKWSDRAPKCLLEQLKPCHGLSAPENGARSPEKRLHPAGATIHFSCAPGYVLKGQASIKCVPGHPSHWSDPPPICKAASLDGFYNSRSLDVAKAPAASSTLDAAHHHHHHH

Row | Binder | EC50 [1] [nM] | MFImax [1] | Kd [2] [nM] | koff [2] [s⁻¹] | kon [2] [M⁻¹ s⁻¹] | Kd [3] [nM] | koff [3] [s⁻¹] | kon [3] [M⁻¹ s⁻¹]
1 | hSC200 (hSC17.200) (antibody, human IgG1, kappa, V domains shown, also called control molecule; control antibody) VH: EVQLVQSGAEVKKPGESLKISCKGSGYSFTSSWINWVRQMPGKGLEWMGRIYPGEGDTNYNGNFEGQVTISADKSISTAYLQWSSLKASDTAMYYCTRGLVMDYWGQGTLVTVSS VL: EIVLTQSPATLSLSPGERATLSCRASQSVDYNGISYMHWYQQKPGQAPRLLIYAASNVQSGIPARFSGSGSGTDFTLTISSLEPEDFAVYYCQQSIEDPPTFGGGTKVEIKR | 0.26 | 1160 | 59.9 | 0.00468 | 78200 | 57.9 | 0.00475 | 82000
2 | PR3178 (antibody, human IgG1, kappa, V domains shown, Humanized, human IgG1, kappa; also called humanized antibody of cAb3009) VH: QVQLVQSGAEVKKPGASVKVSCKASGYTFTDYEMHWVRQAPGQGLEWMGGIDPESDNTVYNQKFKGRVTLTEDTSTSTAYMELRSLRSEDTAVYYCTRGDWYFDVWGQGTTVTVSS VL: DIVMTQSPDSLAVSLGERATINCKSSQSLLNSRTRENYLAWYQQKPGQPPKLLIYWASTRESGVPDRFSGSGSGTDFTLTISSLQAEDVAVYYCGQSYNLFTFGQGTKLEIKR | 0.05 | 1300 | 1.61 | 0.00064 | 396000 | 1.55 | 0.000616 | 398000
